Assay results reported in patent US8143025B2, “Antibodies against vascular endothelial growth factor receptor-1” (ImClone LLC, priority 2004, dated 2012).

Key:
mouse VEGFR-I-AP = molecular target: T1, mouse VEGFR-I-AP (Mus musculus, UniProt P35969); assay: Plate-bound receptor binding ELISA (Example 2B); conditions: FIG. 32B, 100 ng/well
T1 sequence (P35969 23-759 limits assumed): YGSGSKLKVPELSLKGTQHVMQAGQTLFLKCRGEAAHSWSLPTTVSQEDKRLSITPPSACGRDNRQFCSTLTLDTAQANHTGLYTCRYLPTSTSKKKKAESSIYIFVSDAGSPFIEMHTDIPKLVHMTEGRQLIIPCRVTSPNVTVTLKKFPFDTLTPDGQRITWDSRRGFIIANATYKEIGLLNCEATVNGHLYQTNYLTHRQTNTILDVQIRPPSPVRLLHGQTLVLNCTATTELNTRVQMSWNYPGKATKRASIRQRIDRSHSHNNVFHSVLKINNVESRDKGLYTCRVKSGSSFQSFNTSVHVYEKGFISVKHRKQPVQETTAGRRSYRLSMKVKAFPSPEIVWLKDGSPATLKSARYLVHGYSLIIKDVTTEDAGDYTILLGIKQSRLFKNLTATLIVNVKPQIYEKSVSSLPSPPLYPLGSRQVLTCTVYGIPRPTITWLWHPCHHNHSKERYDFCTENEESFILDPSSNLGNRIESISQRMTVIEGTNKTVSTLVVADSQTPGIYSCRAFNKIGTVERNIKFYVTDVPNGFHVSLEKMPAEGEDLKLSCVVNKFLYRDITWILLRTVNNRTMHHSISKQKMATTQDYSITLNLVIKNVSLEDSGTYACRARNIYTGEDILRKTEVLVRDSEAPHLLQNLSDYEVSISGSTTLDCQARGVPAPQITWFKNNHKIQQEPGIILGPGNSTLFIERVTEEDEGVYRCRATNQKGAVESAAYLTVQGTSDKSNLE
Method: (§1) HuVEGFR-I-Fc, mouse VEGFR-I-AP (hnClone Systems) or huVEGFR-2-AP (ImClone Systems) (100 ng/well) was coated on 96 strip-well plates and blocked with 5% milk/PBS. The binding of 18F1 and other anti-human VEGFR-I antibodies or a rat anti-mouse VEGFR-I antibody, MF1 (ImClone Systems, ref. 18), to plate bound VEGFR-I or VEGFR-2 was evaluated as described for the hybridoma supernatant screening above, except that bound antibody was detected with a goat anti-human kappa-HRP antibody (Bio Source International, Camarillo, Calif.) for 18F1 and anti-human VEGFR-2 antibody ICl 1. or a goat anti-rat IgG-HRP antibody (BioSource International) for MF1.

HuVEGFR-I-Fc = molecular target: T2, HuVEGFR-I-Fc (Homo sapiens, UniProt P17948); assay: Plate-bound receptor binding ELISA (Example 2B); conditions: FIG. 32A, 100 ng/well
T2 construct: soluble recombinant VEGFR-I Fc (rhuVEGFR-1 Fc) proteins were purchased from (R&D Systems Inc); purchased R&D Systems Inc
T2 sequence (P17948 27-758 limits assumed): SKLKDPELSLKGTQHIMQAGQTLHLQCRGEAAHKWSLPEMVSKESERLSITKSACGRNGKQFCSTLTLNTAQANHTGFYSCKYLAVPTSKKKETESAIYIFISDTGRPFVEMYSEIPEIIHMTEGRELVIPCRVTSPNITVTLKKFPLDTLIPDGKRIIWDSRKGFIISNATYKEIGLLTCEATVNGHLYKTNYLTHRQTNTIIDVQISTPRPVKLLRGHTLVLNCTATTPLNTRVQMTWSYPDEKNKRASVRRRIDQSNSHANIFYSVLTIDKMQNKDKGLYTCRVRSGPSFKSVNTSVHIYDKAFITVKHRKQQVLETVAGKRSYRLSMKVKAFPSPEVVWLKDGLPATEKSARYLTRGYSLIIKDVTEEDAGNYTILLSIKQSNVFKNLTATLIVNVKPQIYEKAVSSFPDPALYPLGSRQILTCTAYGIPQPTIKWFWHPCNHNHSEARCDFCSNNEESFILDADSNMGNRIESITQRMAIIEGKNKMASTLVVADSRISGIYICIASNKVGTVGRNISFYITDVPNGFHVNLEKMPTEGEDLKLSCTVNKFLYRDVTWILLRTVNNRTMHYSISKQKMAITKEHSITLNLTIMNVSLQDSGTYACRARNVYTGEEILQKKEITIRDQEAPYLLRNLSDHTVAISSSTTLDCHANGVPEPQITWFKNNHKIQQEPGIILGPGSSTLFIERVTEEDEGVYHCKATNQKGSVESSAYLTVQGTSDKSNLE
Method: as §1

HT-29 cells = assay: Migration through membrane insert; format: cell-based, human; conditions: 66 nM antibody, 10 ng/mL VEGF-A or 50 ng/mL VEGF-B, 48 hours, p<0.05, FIG. 23
Method: HT-29 cells (2.5×1 10^4) or SW480 cells (1.5×1 10^4) were incubated in medium containing 1% FBS with the anti-VEGFR-1 antibody 18F1 (66 nM) in the upper surface of a 24 well MATRIGEL™ coated (HT-29) or uncoated (SW480) 8.0-μm pore size membrane insert (Becton Dickinson Labware, Bedford, Mass.). The inserts were placed into lower chambers containing 10 ng/mL VEGF-A (R&D Systems) or 50 ng/mL VEGF-B (R&D Systems) for 48 hours. Cells remaining in the top chamber of the inserts were removed with a cotton swab. Cells migrating to the underside of the inserts were stained with Diff-Quik (Harleco, Gibbstown, N.J.) and counted in ten random fields at 100× magnification. Statistical analysis was performed using InStat Statistical Software (V2.03, GraphPad Software, San Diego, Calif.).

[1] = tested on: HT-29 human colon carcinoma cells; assay: Soft agarose colony formation; format: cell-based; conditions: 66 nM antibody, 10 ng/mL VEGF-A or 50 ng/mL VEGF-B, 14 days, p<0.03
Method: One mL DMEM medium containing 10% FBS and 1% agarose (Cambrex Corporation, East Rutherford, N.J.) was plated in each well of six well plates. HT-29 human colon carcinoma cells in serum free medium were treated with 66 nM 18F1 or control IgG for 1 hour and followed by treatment with 10 ng/mL VEGF-A or 50 ng/mL VEGF-B for additional 4 hours. The treated cells were mixed with 1 mL 10% FBS DMEM containing 0.5% agarose and the appropriate antibodies and/or ligands. One mL of this suspension, containing 250 cells, was plated in each well on top of the 1% agarose base layer. After 2 days, additional medium containing antibodies and/or ligands was added to the wells to keep the agarose hydrated. Cells were allowed to grow for 14 days at 37° C. Afterwards, colonies larger than 50 μm in diameter were counted using a dissecting microscope. Statistical analysis was performed using hiStat Statistical Software (V2.03, GraphPad Software, San Diego, Calif.)

- reactivity with mouse VEGFR-I (mouse VEGFR-I-AP): no cross reactivity
- reactivity with human VEGFR-I (HuVEGFR-I-Fc): specific reactivity
Substance: 18F1: human anti-VEGFR-1 monoclonal antibody clone; VL SEQ ID NO: 16, VH SEQ ID NO: 20 [Clone 18F1]
- VEGFR-I ligand induced migration (HT-29 cells): completely blocked
- VEGF-A or VEGF-B induced colony formation [1]: completely suppressed
